This is an account of results in patent US20240199761A1 (AstraZeneca / MedImmune, published 2024).

Where a chain is given by its changes, count along the chain named. Where two headings read alike, the source gives them in different places.

One experiment addresses recombinant human PAD2 (human, UniProt Q9Y2J8 1-665). Put plainly: cell-based or functional assay.
Experiment [1] deals with T1, cynomolgus PAD2 haplotype N55D, T63A, N82S (9.4%) (cynomolgus, UniProt G7NUR0 1-665).
T1 chain: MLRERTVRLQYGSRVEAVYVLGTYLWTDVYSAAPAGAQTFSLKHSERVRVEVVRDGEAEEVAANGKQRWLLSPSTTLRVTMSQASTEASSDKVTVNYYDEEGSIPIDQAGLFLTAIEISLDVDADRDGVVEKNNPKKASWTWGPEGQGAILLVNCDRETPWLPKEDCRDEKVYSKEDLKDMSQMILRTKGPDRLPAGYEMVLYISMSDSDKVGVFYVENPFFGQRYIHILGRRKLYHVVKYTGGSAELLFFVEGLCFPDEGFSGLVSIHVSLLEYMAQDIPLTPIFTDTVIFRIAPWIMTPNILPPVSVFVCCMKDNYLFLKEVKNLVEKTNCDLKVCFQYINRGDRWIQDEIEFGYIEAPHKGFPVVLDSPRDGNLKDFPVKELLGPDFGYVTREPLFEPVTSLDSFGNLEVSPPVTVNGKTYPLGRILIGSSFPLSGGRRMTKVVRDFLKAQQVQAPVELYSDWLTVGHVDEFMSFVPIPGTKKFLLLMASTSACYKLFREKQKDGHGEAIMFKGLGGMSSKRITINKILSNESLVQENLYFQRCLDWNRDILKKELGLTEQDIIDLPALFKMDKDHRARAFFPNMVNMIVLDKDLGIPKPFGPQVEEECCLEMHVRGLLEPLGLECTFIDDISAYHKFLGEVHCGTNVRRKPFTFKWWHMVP
Put plainly: SPR; antibody captured on C1-Protein G', PAD2 flowed over.

Experiment [2] concerns the target T2, cynomolgus PAD2 haplotype N55D, N82S (37.5%) (cynomolgus, UniProt G7NUR0 1-665).
T2 chain: T1 chain with A63T
The experiment is described as above.

In the next experiment the target is T3, recombinant mouse PAD2 (mouse, UniProt Q08642 1-673).
T3 construct: Recombinant and tagged
Description: ratio of SPR KDs, mouse PAD2 against human PAD2; antibody captured on C1-Protein G', PAD flowed over.

For a further experiment, the target named is T4, huFcRn (human, UniProt P55899 24-297; P61769 21-119, limits assumed).
T4 construct: also called human neonatal Fc receptor
Put plainly: huFcRn affinity chromatography, pH gradient elution.

Experiment [3] has as its target T5, human PAD2, recombinant, tags at the N-terminus (human, UniProt Q9Y2J8 1-665, enzymatically biotinylated on an Avi-tag where captured on streptavidin).
T5 construct: not shown: N-terminal tags incl; Avi-tag
Description: SPR; biotinylated antibody on C1-streptavidin, PAD2 flowed over.

Experiment [4] deals with T6, cynomolgus PAD2, recombinant, tags at the N-terminus (cynomolgus, UniProt G7NUR0 1-665, enzymatically biotinylated on an Avi-tag where captured on streptavidin).
T6 construct: also called Cyno PAD2; not shown: N-terminal tags incl; Avi-tag
Described as above.

The target in experiment [5] is T5, human PAD2, recombinant, tags at the …. The description is as above. The source holds these as a separate data set.
Experiment [6] deals with T6, cynomolgus PAD2, recombinant, tags at …. The description is as above. This is another data set of the same source.
For experiment [7], the target named is T5, human PAD2, recombinant, tags at the …. Description: SPR; antibody on C1-Protein G', PAD2 flowed over. A general note: SPR reads the build-up and loss of mass on a sensor chip optically.
In experiment [8] the target is T7, mouse PAD2, recombinant, tags at the N-terminus (mouse, UniProt Q08642 1-673, enzymatically biotinylated on an Avi-tag where captured on streptavidin).
T7 construct: not shown: N-terminal tags incl; Avi-tag
Description: SPR; antibody on C1-Protein G', PAD2 flowed over.

Experiment [9] addresses T6, cynomolgus PAD2, recombinant, tags at …. Put plainly: SPR; antibody on C1-Protein G', PAD2 flowed over.
Experiment [10] addresses T5, human PAD2, recombinant, tags at the …. Put plainly: SPR; antibody on C1-Protein G', PAD2 flowed over. This is another data set of the same source.
For experiment [11], the target named is T7, mouse PAD2, recombinant, tags at the …. Put plainly: SPR; antibody on C1-Protein G', PAD2 flowed over. This is another data set of the same source.
For experiment [12], the target named is T6, cynomolgus PAD2, recombinant, tags at …. Put plainly: SPR; antibody on C1-Protein G', PAD2 flowed over. The source holds these as a separate data set.
The next experiment has as its target T8, Human PAD1 (Homo sapiens, UniProt Q9ULC6).
T8 construct: biotinylated, captured on a streptavidin plate; also called biotinylated PAD1
T8 sequence (single chain, looked up): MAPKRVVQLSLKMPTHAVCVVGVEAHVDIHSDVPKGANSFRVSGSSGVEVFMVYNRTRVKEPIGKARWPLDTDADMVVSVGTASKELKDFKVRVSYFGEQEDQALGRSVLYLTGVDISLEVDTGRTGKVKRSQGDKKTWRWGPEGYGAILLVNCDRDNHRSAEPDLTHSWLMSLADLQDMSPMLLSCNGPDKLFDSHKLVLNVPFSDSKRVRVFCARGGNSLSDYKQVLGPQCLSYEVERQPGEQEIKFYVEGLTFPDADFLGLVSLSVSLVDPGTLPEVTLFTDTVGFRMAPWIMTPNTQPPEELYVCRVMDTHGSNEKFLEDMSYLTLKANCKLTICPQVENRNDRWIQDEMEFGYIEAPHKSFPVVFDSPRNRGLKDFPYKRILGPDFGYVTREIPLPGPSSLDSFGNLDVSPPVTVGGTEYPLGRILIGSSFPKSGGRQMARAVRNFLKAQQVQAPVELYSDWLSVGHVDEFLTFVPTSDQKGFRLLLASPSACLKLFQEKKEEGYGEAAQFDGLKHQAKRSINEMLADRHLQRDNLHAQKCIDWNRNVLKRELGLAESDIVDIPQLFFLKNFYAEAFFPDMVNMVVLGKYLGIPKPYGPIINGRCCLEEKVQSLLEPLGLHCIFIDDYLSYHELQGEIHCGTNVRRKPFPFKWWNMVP
Put plainly: specificity ELISA: biotinylated PAD on a streptavidin plate, detection with anti-human IgG Fc HRP, Binding (RFU); antibody concentration not given. Background: In an ELISA, binding on a coated surface is turned into a signal by an enzyme label.

A further experiment concerns the target T9, Human PAD3 (Homo sapiens, UniProt Q9ULW8).
T9 construct: biotinylated, captured on a streptavidin plate; also called biotinylated PAD3
T9 sequence (single chain, looked up): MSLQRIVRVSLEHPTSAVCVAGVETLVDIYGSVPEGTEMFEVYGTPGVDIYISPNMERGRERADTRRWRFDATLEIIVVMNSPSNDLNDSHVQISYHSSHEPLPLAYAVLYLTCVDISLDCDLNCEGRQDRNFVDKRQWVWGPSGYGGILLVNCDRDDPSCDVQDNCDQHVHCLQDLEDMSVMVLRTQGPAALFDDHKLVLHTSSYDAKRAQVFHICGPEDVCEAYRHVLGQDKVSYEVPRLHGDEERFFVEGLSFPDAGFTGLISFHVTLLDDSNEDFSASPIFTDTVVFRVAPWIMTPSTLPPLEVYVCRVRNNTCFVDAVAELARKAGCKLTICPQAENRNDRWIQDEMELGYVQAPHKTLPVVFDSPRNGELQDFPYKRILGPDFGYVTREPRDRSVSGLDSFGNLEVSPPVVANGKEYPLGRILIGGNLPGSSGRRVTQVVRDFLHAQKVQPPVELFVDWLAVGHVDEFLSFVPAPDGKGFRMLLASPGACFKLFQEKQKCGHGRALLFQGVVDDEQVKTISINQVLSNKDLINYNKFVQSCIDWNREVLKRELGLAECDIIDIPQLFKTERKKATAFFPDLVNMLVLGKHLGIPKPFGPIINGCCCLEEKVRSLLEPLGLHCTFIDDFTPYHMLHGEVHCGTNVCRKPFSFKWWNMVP
The experiment is described as above.

B1: Clone 08 (Bis3, TM; Fab anti-PAD2, scFv anti-PAD4) (bispecific antibody, human IgG1, lambda)
heavy: not shown
light: SYVLTQPPSVSVSPGQTASITCSGDKVGDKYVSWYQQKPGQSPVLVIYQDSQRPSGIPERFSGSNSGNTATLTISGTQAMDEADYYCQTWAPDVLLFGSGTKVTVLGQPKAAPSVTLFPPSSEELQANKATLVCLISDFYPGAVTVAWKADSSPVKAGVETTTPSKQSNNKYAASSYLSLTPEQWKSHRSYSCQVTHEGSTVEKTVAPTECS
notes: Bivalent bispecific IgG-HC-scFv; also called Clone 8*; Clone 8^#
For orientation: Kd means the constant that tells how readily two partners part at equilibrium. Broadly, the koff is the first-order rate constant of dissociation. One may read the kon as the second-order rate constant of association. Regarding B1, the “Potency (IC50), Histone-H3 assay” value with recombinant human PAD2 is 94 pM. In experiment [1], this molecule gave a Kd of 43.4 pM, a koff of 6.76e-05 s⁻¹ and a kon of 1.58e+06 M⁻¹ s⁻¹. In addition, in experiment [2], the Kd stood at 6.4 pM, the koff stood at 2.65e-05 s⁻¹ and the kon is 4.23e+06 M⁻¹ s⁻¹. For the same molecule, the “fold difference in KD, mouse/human” value in the experiment with recombinant mouse PAD2 was determined as 1.1 fold. In addition, in the experiment with huFcRn, the “HPLC retention” value came out at 17 min and the Relative retention was -0.207.

B2: Clone 08, Bis3 anti-PAD2 Fab / anti-PAD4 scFv, Fc TM (bispecific antibody, human IgG1, lambda)
heavy: not shown
light: B1 light
notes: Bivalent for PAD2 and for PAD4; In the rows marked ^# the antibody was chemically biotinylated; also called Clone 8*; Clone 8^#
B2: the Kd in experiment [3] amounted to 7.51 pM; in experiment [4] it was 12.1 pM; in experiment [5], 7.51 pM; in experiment [6], 12.1 pM; in [7], 6.65 pM; in experiment [8], 7.19 pM. Also, the Kd was found to be 16.7 pM in [9], 6.65 pM in experiment [10], 7.19 pM in experiment [11] and 16.7 pM in [12]. Besides, the koff was 4.74e-05 s⁻¹ in [5]; 0.0001 s⁻¹ in experiment [6]; 2.97e-05 s⁻¹ in [10]; 3.31e-05 s⁻¹ in experiment [11]; 4.52e-05 s⁻¹ in experiment [12]. For the same molecule, the kon in [5] is 5.88e+06 M⁻¹ s⁻¹; in [6], 9.48e+06 M⁻¹ s⁻¹; in [10], 4.48e+06 M⁻¹ s⁻¹; in [11] it was 4.65e+06 M⁻¹ s⁻¹; in [12], 2.74e+06 M⁻¹ s⁻¹.

B3: Clone 12 (Bis3, FQQ-YTE; PAD2 Fab, PAD4 scFv) (bispecific antibody, human IgG1, lambda)
heavy: not shown
light: B1 light
notes: also called PAD240012
For the molecule B3, the binding result with Human PAD1 and with Human PAD3 was “no binding” each time.
